Data from patent publication US20230295310A1 (ABCELLERA BIOLOGICS, published 2023).

B1: mAb 237 (antibody, V domains shown)
VH: EVQLLESGGDLVQPGGSLRLTCAASGFTFRSYAMNWVRQAPGKGLEWVSTISSRGDTTNYADSVKGRFTISRDTSKNTLYLQMDNLRADDTAVYYCSKMFSYYYYYMDVWGKGTTVTVSS
VL: SYELTQPLSVSVALGQTARITCGGNNIGSKDVHWYQQKPGQAPVLVIYRDSNRPSGIPERFSGSNSGNTATLTISRAQAGDEADYYCQVWDSRTAVFGGGTQLTAL
notes: VH/VL only
B2: mAb 238 (antibody, V domains shown)
VH: EVQLLESGGDLVQPGGSLRLTCAASGFTFRSYAMNWVRQAPGKGLEWVSTISSRGDTTNYADSVKGRFTISRDTSKNTLYLQMDNLRADDTAVYYCSKMFSYYYYYMDVWGKGTTVTVSS
VL: SYELTQPLSVSVALGQTARITCGGNNIGSKDVHWYQQKPGQAPVLVIYRDSNRPSGIPERFSGSNSGNTATLTISRAQAGDEADYYCQVWDSSTAVFGGGTQLTAL
notes: VH/VL only
B3: mAb 220 (antibody, V domains shown)
VH: QEQLVESGGGVVQPGGSLRLSCVASGFTFSGYGMHWVRQAPGKGLEWVAIIWYNGRKTYYAESVKGRFTISRDNSKNTLSLQMNSLRVEDTAVYYCTTGKGYNWFDPWGQGTLVTVSS
VL: EIVMTQSPATLSVSPGERATLSCRASQSVSSNLAWYQQKPGQAPRLLIYGASTRATGIPARFSGSGSGTEFTLTISSLQSEDFAVYYCQQFNAWPLTFGGGTKMEIK
notes: VH/VL only
B4: mAb 225 (antibody, V domains shown)
VH: QEQLVESGGGVVQPGGSLRLSCAASGFKFSGYGMHWVRQAPGKGLEWVAIIWYNGRKTYYAESVKGRFTISRDNSKNTLSLQMNRLRVEDTAVYYCTAGQGYNWFDPWGQGTLVTVSS
VL: EIVMTQSPATLSVSPGERATLSCRASQSVSSNLAWYQQKPGQAPRLLIYGASTRATGIPARFSGSGSGTEFTLTISSLQSEDFAVYYCQQFNAWPLTFGGGTKMEIK
notes: VH/VL only
B5: mAb 228 (antibody, V domains shown)
VH: EVQLLESGGGLVQPGGSLRLSCAASGFTFSNYAMNWVRQAPGKGLEWVSTISGSGGGKYYADSVKGRFTISRDNSKNTLYLHMNSLRAEDTAVYYCAKDPVQDRYYFYYYYMDVWGKGTTVTVSS
VL: EIVLTQSPDFQSVTPKEKVTITCRASQSIGSSLHWYQQKPDQSPKLLIKYASQSISGVPSRFSGSGSGTDFTLTINSLEAEDAAAYYCHQSSSLPHTFGQGTKLEIK
notes: VH/VL only
B6: mAb 229 (antibody, V domains shown)
VH: QEQLVESGGGVVQPGRSLRLSCAASGFTFSSYGMHWVRQAPGKGLEWVAIIYYNGKKKDYADSVKGRFTISRDNSKNTLYLQMNSLRAEDTAVYYCARGLGYNWFDPWGQGTLVTVSS
VL: EIVLTQSPDFQSVTPKEKVTITCRASQSIGSSLHWYQQKPDQSPKLLIKYASQSFSGVPSRFSGSGSGTDFTLTINSLEAEDAATYYCHQSSSLPYTFGQGTKLEIK
notes: VH/VL only
B7: mAb 230 (antibody, V domains shown)
VH: EVQLLESGGGLVQPGGSLRLSCAASGFTFSSYAMSWVRQAPGKGLEWVSSISGSGGSRYYADSVKGRFTISRDNSKNTLYLQMNSLRAEDTAVYYCAKDPVQDRYYFYYYYMDVWGKGTTVTVSS
VL: EIVLTQSPDFQSVTPKEKVTITCRASQSIGSSLHWYQQKPDQSPKLLIKYASQSISGVPSRFSGSGSGTDFTLTINSLEAEDAAAYYCHQSSSLPHTFGQGTKLEIK
notes: VH/VL only

Assays:
[1] = target: T1, human CD3 expressed on cells (Jurkat cells; human primary T cells) (human, UniProt P07766 23-207; P04234 22-171; P09693 23-182); assay: flow cytometry, 25 nM, human primary T cells
T1 construct: whole, on cells
T1 sequence (P07766 23-207, chain 1 of 3): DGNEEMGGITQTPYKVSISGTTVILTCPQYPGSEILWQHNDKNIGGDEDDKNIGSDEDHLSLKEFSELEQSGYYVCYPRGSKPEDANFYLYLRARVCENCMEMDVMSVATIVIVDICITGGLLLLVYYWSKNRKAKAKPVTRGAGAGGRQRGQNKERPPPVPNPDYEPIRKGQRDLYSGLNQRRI
T1 sequence (P04234 22-171, chain 2 of 3): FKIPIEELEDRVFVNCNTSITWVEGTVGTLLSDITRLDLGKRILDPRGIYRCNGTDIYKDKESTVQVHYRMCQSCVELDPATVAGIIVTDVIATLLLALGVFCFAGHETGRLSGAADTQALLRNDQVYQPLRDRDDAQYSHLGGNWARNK
T1 sequence (P09693 23-182, chain 3 of 3): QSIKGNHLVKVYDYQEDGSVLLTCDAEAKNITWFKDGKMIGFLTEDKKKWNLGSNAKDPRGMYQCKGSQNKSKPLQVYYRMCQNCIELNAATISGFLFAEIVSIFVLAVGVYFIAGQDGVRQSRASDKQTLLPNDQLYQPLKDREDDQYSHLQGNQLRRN
Method in brief: (§1)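 Binding reported as fold over isotype: median fluorescence intensity divided by isotype control, with ≥10 scored positive. Cells were exposed to 25 nM antibody in PBS/2% FBS, 30 min, 4 °C, before flow cytometric read-out.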

[2] = target: T1, human CD3 expressed on cells (Jurkat …); assay: flow cytometry, 25 nM, Jurkat cells
Method in brief: as §1

[3] = target: T2, cynomolgus monkey CD3 expressed on cyno primary T cells (cynomolgus monkey, UniProt Q95LI5 22-198; Q95LI8 22-171; Q95LI7 23-181); assay: flow cytometry, cyno primary T cells
T2 construct: whole, on cells; CD3 complex on purified cynomolgus monkey CD3 pan T cells; also called cyno CD3
T2 sequence (Q95LI5 22-198, chain 1 of 3): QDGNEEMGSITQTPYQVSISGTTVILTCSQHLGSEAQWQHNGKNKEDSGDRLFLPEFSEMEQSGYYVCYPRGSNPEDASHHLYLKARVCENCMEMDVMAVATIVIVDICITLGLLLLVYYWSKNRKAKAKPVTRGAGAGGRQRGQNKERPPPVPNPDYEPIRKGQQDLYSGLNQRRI
T2 sequence (Q95LI8 22-171, chain 2 of 3): as the sequence (P04234 22-171, chain 2 of 3) above, with I5V, N15K, I20V, S32T, D33N, I34N, T64A, S74N, V83L, H141R counted along it
T2 sequence (Q95LI7 23-181, chain 3 of 3): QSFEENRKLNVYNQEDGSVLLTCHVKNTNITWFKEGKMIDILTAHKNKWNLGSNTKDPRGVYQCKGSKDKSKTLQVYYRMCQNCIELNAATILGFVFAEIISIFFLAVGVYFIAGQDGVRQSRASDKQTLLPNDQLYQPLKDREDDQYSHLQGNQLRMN
Method in brief: as §1

Binder | Binding (FOI) [1] [FOI] | Binding (FOI) [2] [FOI] | binding result [3]
B1 | 293 | 217 | no binding (tested: FOI <10 (FOI >=10 = positive); 25 nM)
B2 | 266 | 185 | no binding (tested: FOI <10 (FOI >=10 = positive); 25 nM)
B3 | 243 | 181 | no binding (tested: FOI <10 (FOI >=10 = positive); 25 nM)
B4 | 267 | 210 | no binding (tested: FOI <10 (FOI >=10 = positive); 25 nM)
B5 | 105 | 159 | no binding (tested: FOI <10 (FOI >=10 = positive); 25 nM)
B6 | 250 | 180 | no binding (tested: FOI <10 (FOI >=10 = positive); 25 nM)
B7 | 55.3 | 141 | no binding (tested: FOI <10 (FOI >=10 = positive); 25 nM)
